Molecular target: exonuclease domain from the DNA repair protein WRN
Test: SEC-MALS; protein concentrated (10x and 20x) in a mixture of 50 mM phosphate and 1% sucrose; A280 and MALS across the elution peak

exonuclease domain from the DNA repair protein WRN, sequence (Q14191 2-1432): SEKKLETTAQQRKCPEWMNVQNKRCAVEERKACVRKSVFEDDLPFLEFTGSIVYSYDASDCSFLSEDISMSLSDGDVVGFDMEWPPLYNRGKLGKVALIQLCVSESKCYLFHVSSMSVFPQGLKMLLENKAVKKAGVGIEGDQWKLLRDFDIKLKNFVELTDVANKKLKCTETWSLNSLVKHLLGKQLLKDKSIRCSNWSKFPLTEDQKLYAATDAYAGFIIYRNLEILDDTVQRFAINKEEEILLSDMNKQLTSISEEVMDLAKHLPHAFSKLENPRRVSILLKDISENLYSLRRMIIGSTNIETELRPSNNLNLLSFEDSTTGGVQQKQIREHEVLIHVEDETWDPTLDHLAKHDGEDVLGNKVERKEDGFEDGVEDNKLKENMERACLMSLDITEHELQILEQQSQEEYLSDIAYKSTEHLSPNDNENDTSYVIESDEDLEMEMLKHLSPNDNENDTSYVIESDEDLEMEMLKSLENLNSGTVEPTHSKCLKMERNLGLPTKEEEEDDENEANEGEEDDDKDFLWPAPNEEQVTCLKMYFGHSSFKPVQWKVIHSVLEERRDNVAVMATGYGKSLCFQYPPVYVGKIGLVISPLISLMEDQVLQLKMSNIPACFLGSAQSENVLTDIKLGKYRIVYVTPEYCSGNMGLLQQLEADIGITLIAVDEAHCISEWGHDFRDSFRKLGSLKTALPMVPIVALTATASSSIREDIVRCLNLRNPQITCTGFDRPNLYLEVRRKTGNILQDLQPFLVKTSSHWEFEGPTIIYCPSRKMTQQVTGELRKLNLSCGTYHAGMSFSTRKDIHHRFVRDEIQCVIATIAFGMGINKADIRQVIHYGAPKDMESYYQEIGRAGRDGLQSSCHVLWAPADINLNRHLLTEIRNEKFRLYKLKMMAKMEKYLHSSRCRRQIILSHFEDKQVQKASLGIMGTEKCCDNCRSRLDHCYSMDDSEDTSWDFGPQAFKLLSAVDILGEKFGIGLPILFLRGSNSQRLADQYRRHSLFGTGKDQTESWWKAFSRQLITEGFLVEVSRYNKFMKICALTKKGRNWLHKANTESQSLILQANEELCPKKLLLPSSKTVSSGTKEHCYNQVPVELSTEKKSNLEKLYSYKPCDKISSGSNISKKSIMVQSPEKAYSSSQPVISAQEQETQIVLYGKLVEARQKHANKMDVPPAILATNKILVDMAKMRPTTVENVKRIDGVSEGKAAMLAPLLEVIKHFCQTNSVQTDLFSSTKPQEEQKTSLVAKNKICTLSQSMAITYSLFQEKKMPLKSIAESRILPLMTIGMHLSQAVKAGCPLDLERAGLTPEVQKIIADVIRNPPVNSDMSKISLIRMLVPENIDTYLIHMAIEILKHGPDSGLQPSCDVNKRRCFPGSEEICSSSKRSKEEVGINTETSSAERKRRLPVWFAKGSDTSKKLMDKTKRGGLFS

- stoichiometry N: 2
Substance: exonuclease domain from the DNA repair protein WRN (domain or fragment)
